The values below come from article PMC9758056 (2022).

The assay has as its target Taxol-stabilized microtubules from bovine tubulin, labeled with Alexa Fluor 488 and biotin, tethered to a … (bovine, UniProt Q6B856 1-445, part of the tubulin biotinylated, part labeled with Alexa Fluor 488 (10% biotin-tubulin and 10% Alexa 488-tubulin) | part of the tubulin biotinylated, part labeled with Alexa Fluor 488 (10% …)).

Chain of Taxol-stabilized microtubules from bovine tubulin, labeled with Alexa Fluor 488 and biotin, tethered to a … (chain, as listed by the source, chain 1 of 2): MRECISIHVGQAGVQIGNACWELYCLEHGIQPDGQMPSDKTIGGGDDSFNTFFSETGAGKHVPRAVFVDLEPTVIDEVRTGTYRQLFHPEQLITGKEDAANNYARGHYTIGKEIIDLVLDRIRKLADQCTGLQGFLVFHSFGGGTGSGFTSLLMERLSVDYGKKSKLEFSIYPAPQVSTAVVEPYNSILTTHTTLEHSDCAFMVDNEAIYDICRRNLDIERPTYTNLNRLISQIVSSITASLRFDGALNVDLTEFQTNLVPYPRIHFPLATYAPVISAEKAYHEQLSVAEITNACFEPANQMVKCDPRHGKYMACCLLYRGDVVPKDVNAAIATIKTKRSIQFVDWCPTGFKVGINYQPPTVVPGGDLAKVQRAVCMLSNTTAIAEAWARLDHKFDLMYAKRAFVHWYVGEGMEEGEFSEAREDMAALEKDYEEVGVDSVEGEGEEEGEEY
Chain of Taxol-stabilized microtubules from bovine tubulin, labeled with Alexa Fluor 488 and biotin, tethered to a … (Q6B856 whole entry, chain 2 of 2): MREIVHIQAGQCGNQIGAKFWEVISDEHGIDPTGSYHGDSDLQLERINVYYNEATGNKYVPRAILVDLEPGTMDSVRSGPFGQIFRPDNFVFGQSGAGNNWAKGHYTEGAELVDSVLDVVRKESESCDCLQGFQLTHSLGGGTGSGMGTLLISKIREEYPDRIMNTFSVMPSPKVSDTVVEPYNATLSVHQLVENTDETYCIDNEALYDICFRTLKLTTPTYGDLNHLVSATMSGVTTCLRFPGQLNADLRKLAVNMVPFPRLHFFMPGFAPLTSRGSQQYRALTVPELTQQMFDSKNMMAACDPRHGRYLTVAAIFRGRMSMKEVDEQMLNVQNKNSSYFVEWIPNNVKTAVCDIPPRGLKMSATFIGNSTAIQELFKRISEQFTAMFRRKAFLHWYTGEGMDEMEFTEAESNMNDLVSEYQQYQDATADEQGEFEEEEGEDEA

B1: TMR-LRRK2^RCKW (LRRK2^RCKW randomly labeled with BODIPY TMR-X) (domain or fragment)
chain: KKAVPYNRMKLMIVGNTGSGKTTLLQQLMKTKKSDLGMQSATVGIDVKDWPIQIRDKRKRDLVLNVWDFAGREEFYSTHPHFMTQRALYLAVYDLSKGQAEVDAMKPWLFNIKARASSSPVILVGTHLDVSDEKQRKACMSKITKELLNKRGFPAIRDYHFVNATEESDALAKLRKTIINESLNFKIRDQLVVGQLIPDCYVELEKIILSERKNVPIEFPVIDRKRLLQLVRENQLQLDENELPHAVHFLNESGVLLHFQDPALQLSDLYFVEPKWLCKIMAQILTVKVEGCPKHPKGIISRRDVEKFLSKKRKFPKNYMSQYFKLLEKFQIALPIGEEYLLVPSSLSDHRPVIELPHCENSEIIIRLYEMPYFPMGFWSRLINRLLEISPYMLSGRERALRPNRMYWRQGIYLNWSPEAYCLVGSEVLDNHPESFLKITVPSCRKGCILLGQVVDHIDSLMEEWFPGLLEIDICGEGETLLKKWALYSFNDGEEHQKILLDDLMKKAEEGDLLVNPDQPRLTIPISQIAPDLILADLPRNIMLNNDELEFEQAPEFLLGDGSFGSVYRAAYEGEEVAVKIFNKHTSLRLLRQELVVLCHLHHPSLISLLAAGIRPRMLVMELASKGSLDRLLQQDKASLTRTLQHRIALHVADGLRYLHSAMIIYRDLKPHNVLLFTLYPNAAIIAKIADYGIAQYCCRMGIKTSEGTPGFRAPEVARGNVIYNQQADVYSFGLLLYDILTTGGRIVEGLKFPNEFDELEIQGKLPDPVKEYGCAPWPMVEKLIKQCLKENPQERPTSAQVFDILNSAELVCLTRRILLPKNVIVECMVATHHNSRNASIWLGCGHTDRGQLSFLDLNTEGYTSEEVADSRILCLALVHLPVEKESWIVSGTQSGTLLVINTEDGKKRHTLEKMTDSVTCLYCNSFSKQSKQKNFLLVGTADGKLAIFEDKTVKLKGAAPLKILNIGNVSTPLMCLSESTNSTERNVMWGGCGTKIFSFSNDFTIQKLIETRTSQLFSYAAFSDSNIITVVVDTALYIAKQNSPVVEVWDKKTEKLCGLIDCVHFLREVMVKENKESKHKMSYSGRVKTLCLQKNTALWIGTGGGHILLLDLSTRRLIRVIYNFCNSVRVMMTAQLGSLKNVMLVLGYNRKNTEGTQKQKEIQSCLTVWDINLPHEVQNLEKHIEVRKELAEKMRRTSVE
modifications: BODIPY TMR-X on primary amines, randomly labeled (dye added 1:1)
In general, Kd refers to the free concentration of one partner at which half of the binding sites on the other are occupied at equilibrium, for simple one-to-one binding. Read a high Kd as a looser complex. The molecule B1 gave a Kd of around 40 nM.
